The record followed here is patent EP3783015A1 (Beijing DCTY Biotech Co., Ltd., dated 2021).

This test has as its target T1, ErbB2-Domain4 protein (human, UniProt P04626 1-675).
T1 construct: Made in E. coli BL21(DE3) from pET-28a (NdeI/XhoI), dissolved from inclusion bodies in 8 M urea and purified on a Ni column; also called ErbB2-Domain4-encoded protein
As to the kind of experiment: indirect ELISA, ErbB2-Domain4 protein coated at 100 ng/well, antibody in serial dilution, A450. Background: In an ELISA, binding on a coated surface is turned into a signal by an enzyme label.

B1: mouse anti-human ErbB2 monoclonal antibody 10A6 (antibody, mouse IgG1, kappa, V domains shown)
VH: QVTLKESGPGILQPSQTLSLTCSFSGFSLSTSGMGVSWIRQPSGKGLEWLAHIYWDDDKRYNPSLKSRLTISKDSSNKQVFLKFTSVDTADTATYYCAHFAYYNYDGAVDSWGQGTSVTVSS
VL: DIVMSQSPSSLTVSAGEKVSMSCKSSQSLLHSRTRKNYLAWYQQKPGQSPKLLIYWASTRESGVPDRFTGSGSGTDFTLTISSVQAEDLAVYYCKQSYSLYTFGGGTKLEIKR
notes: Mouse IgG1-Kappa, purified from hybridoma supernatant on protein G; also called 10A6 clonal antibody protein
In general, EC50 refers to the concentration needed to bring the measured effect to its halfway point. A higher EC50 goes with a need for much substance. Molecule B1 showed a 50% effective concentration (EC50) of 100 nM.
